Test [1] addresses T1, human LAG-3 full-length extra loop peptide (human, conjugated to biotin).
T1 construct: Exposed extra loop of the immunoglobulin-like first extracellular domain of LAG-3; also called LAG-3 extra loop
T1 peptide: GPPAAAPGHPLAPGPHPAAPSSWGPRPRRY
Nature of the test: ELISA on human full-length extra loop peptide. As to the method: To further examine binding of these antibodies to the extra loop peptide region, additional ELISA assays were performed. In an ELISA assay using the human full-length extra loop peptide (SEQ ID NO: 79), EC₅₀ values for binding were determined for 25E3, 25F7 and 8B7. Additionally, a similar peptide ELISA was conducted using the full length extra loop peptide sequence from rhesus monkey LAG-3, having the sequence […] (SEQ ID NO: 90), and EC₅₀ values for binding were determined for 25F7 and 8B7. […] Moreover, antibodies 25F7 and 8B7 also bind to the rhesus LAG-3 extra loop peptide region, albeit less well compared to the human sequence, which may be due to the species sequence divergence in this polypeptide. The results also confirm that the 26H10 antibody is not capable of recognizing the LAG-3 extra loop peptide.
(In general: An ELISA detects its analyte on a solid surface through an enzyme-linked reagent.)

In test [2] the target is T2, human LAG-3 (cell surface) (human, UniProt P18627 23-525).
T2 construct: whole, on cells; also called CHO-human LAG-3
T2 sequence (looked up): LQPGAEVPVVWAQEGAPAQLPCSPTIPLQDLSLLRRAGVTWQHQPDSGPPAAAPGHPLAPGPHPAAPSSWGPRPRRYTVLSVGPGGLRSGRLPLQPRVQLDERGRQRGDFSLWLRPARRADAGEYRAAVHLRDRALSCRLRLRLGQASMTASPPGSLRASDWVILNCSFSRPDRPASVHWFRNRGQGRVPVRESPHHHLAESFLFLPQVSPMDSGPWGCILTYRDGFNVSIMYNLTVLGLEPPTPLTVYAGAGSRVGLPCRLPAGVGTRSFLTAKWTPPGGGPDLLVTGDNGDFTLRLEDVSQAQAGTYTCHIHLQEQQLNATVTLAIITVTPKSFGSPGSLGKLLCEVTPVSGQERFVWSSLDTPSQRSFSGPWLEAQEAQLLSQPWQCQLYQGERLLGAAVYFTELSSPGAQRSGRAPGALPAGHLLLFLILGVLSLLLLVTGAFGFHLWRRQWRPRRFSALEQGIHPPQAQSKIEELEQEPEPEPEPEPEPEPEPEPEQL
Nature of the test: flow cytometry, CHO cells expressing human LAG-3. As to the method:
To test the ability of the antibodies to bind to cell surface LAG-3 protein, the antibodies were incubated with a CHO cell line that had been transfected to express human LAG-3 on the cell surface. The 25F7, 26H10, 25E3, 8B7, 11F2 and 17E5 monoclonal antibodies were serially diluted with cold lx PFAE buffer (1×PBS+2% FBS, 0.02% sodium azide, 2 mM Na EDTA). For the binding reaction, 50 μl of diluted antibody solution was added to a 50 μl cell suspension containing 2×10⁵ cells and the mixture was incubated on ice for 30 minutes. The cells were then washed two times with 1×PFAE buffer. A 1:100 dilution of FITC-labeled goat anti-human kappa light chain antibody (Bethyl Laboratories, Inc., Cat. # A80-115F) was added and the mixture was incubated for 30 minutes at 4° C., followed by washing twice with cold 1×PFAE buffer. After the final wash, 150 μl of cold 1×PFAE containing 10 μg/mL propidium iodide (Roche Applied Science, Cat #1 348 639) was added to each solution and analysis of antibody binding was carried out by flow cytometry using a FACScalibur flow cytometer (BD Bioscience).
A general note: In flow cytometry, cells or beads pass a laser one at a time.

The target of test [3] is T3, mouse LAG-3 (cell surface, 3A9 mouse T cell hybridoma) (mouse, UniProt Q61790 24-521).
T3 construct: whole, on cells; also called mLAG-3
T3 sequence (looked up): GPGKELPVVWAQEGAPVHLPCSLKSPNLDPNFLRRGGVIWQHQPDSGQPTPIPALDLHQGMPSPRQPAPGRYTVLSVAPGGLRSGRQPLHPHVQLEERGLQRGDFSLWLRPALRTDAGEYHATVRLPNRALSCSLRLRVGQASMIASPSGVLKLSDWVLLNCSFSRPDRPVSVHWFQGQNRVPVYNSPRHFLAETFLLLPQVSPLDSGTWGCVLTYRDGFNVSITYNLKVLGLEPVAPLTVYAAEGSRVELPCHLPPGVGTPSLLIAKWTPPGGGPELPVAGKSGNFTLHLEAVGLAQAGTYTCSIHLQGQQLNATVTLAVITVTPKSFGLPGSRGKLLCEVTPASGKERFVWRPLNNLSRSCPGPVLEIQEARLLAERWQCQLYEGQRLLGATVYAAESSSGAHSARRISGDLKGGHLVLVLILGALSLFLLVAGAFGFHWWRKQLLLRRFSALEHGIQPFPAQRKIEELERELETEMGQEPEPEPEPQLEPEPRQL
Nature of the test: flow cytometry, 3A9 cells transfected with mouse LAG-3. How it is done: To determine whether the antibodies cross-reacted with mouse LAG-3, similar flow cytometry studies to those described above were performed using as the target cell a mouse T cell hybridoma cell line (3A9) that had been transfected to express mouse LAG-3 on its cell surface, followed by FACS analysis to detect antibody binding.

The target in test [4] is T4, LAG-3 extra loop scan peptide PAAPSSWGPRPR (human, also: conjugated to biotin).
T4 construct: 12-mer overlapping scan peptide of the extra loop
T4 peptide: PAAPSSWGPRPR
The test can be described thus: peptide scan ELISA. As to the method: (§1) In the LAG-3 protein, the immunoglobulin-like first domain of the extracellular region contains an exposed “extra loop” having the amino acid sequence: […] (SEQ ID NO: 79). To examine the binding of 25E3, 25F7, 8B7 and 26H10 to this region of LAG-3, and map the epitope bound by each antibody, a peptide scan experiment was performed across this region. A series of 10 overlapping peptides that scanned across the full length of the extra loop sequence were prepared and conjugated to biotin. For ELISA analysis, microtiter plates pre-coated with streptavidin (Sigma-Aldrich, Cat # M5432) were used to capture the biotinylated loop peptide-conjugates applied in a 100 μl volume at a concentration of 2 μg/mL and incubated 18 hours at 4° C., after which the plates were washed 3 times and blocked at room temperature for 1 hour with blocking buffer (1×PBS+10% FBS). Next, human anti-LAG-3 antibodies serially diluted 3-fold in blocking buffer from 10 μg/mL were applied and the plates were incubated at room temperature for 2 hours and then washed three times. To detect bound human antibody a HRP-conjugated goat anti-human kappa light chain antibody (Bethyl Laboratories, Cat # A80-115P) was diluted to 1 μg/mL in blocking buffer and applied to assay wells for 1 hour followed by three washes and application of TMB substrate (eBioscience, Cat #00-4201-56). Optical density readings at 650 nm wavelength were made on a Spectramax 340PC spectrophotometer ([…].).

Test [5] addresses T5, LAG-3 extra loop scan peptide PHPAAPSSWGPR (human, also: conjugated to biotin).
T5 construct: 12-mer overlapping scan peptide of the extra loop
T5 peptide: PHPAAPSSWGPR
Nature of the test: peptide scan ELISA. As to the method: as §1

In test [6] the target is T6, LAG-3 extra loop scan peptide PGPHPAAPSSWG (human, also: conjugated to biotin).
T6 construct: 12-mer overlapping scan peptide of the extra loop
T6 peptide: PGPHPAAPSSWG
Nature of the test: peptide scan ELISA. How it is done:
as §1

Where no end group is shown, it is not given here.

B1: 25E3 human monoclonal antibody (antibody, IgG1, V domains shown)
VH: EVQLVESGGGVVRPGGSLRLSCAASGFTFDDYGMSWVRQAPGKGLEWVSGINWNGGSTYYADSVKGRFTISGDNAKNSLYLQMNSLRAEDTALYYCTTGGYWGQGTLVTVSS
VL: AIQLTQSPSSLSASVGDRVTITCRASQGIRSALAWYQQKPGKAPKLLIYDASSLESGVPSRFSGSGSGTDFTLTISSLQPEDFATYYCQQFNSYPYTFGQGTKLEIK
Consider B1, for which the results for the concentration giving a half-maximal response (EC50) in test [1] and in test [2] were 0.55 nM and 14.9 to 25.4 nM, respectively. For the same molecule, the binding result in test [3] was “no binding”.

B2: 25F7 human monoclonal antibody (antibody, IgG1, V domains shown)
VH: QVQLQQWGAGLLKPSETLSLTCAVYGGSFSDYYWNWIRQPPGKGLEWIGEINHNGNTNSNPSLKSRVTLSLDTSKNQFSLKLRSVTAADTAVYYCAFGYSDYEYNWFDPWGQGTLVTVSS
VL: EIVLTQSPATLSLSPGERATLSCRASQSISSYLAWYQQKPGQAPRLLIYDASNRATGIPARFSGSGSGTDFTLTISSLEPEDFAVYYCQQRSNWPLTFGQGTNLEIK
notes: also called 25F7-FITC (IgG1 version)
Turning to B2, the concentration giving a half-maximal response (EC50) in test [1] was 0.29 to 0.95 nM; in test [2], 0.45 to 2.52 nM. In addition, the “fold lower EC50 than 25E3” value in test [2] is about 20 fold. The binding result in test [3] is “no binding”; in test [4] it was “binds”; in test [5], “binds”; in test [6], “binds”.

B3: 8B7 human monoclonal antibody (antibody, IgG4, V domains shown)
VH: QVQLQQWGAGLLKPSETLSLTCAVYGGSFSGYYWSWIRQPPGKGLEWIGEINHRGNTNCNPSLKSRVTISGDTSKKQFALKLNSVTAADTAVYYCARGYDILTGYYEDSWGPGTLVTVSS
VL: EIVLTQSPATLSLSPGERATLSCRASQSVSSYLAWYQQKPGQAPRLLIYNASNRATGIPARFSGSGSGTDFTLTISSLEPEDFAVYYCQQRSNWPLTFGGGTKVEIK
notes: also called 8B7-FITC
For the molecule B3, the values for the EC50 in test [1] and in test [2] were 0.28 to 1.35 nM and 1.93 to 4.44 nM, respectively. For the same molecule, the binding result is “no binding” in test [3], “binds” in test [4], “binds” in test [5] and “binds” in test [6].

B4: 26H10 human monoclonal antibody (antibody, IgG1, V domains shown)
VH: QVQLVESGGGVVQPGRSLRLSCAASGFTFSSYGMHWVRQAPGKGLEWVAVIWYDGSNKYYADSVKGRFTISRDNSKNTLYLQMNSLRAEDTAVYYCAREWAVASWDYGMDVWGQGTTVTVSS
VL: not shown
notes: also called 26H10-FITC
Turning to B4, the binding result in test [1] is “no binding”; in test [3], “no binding”; in test [4] it was “no binding (tested: 10 µg/mL)”; in test [5], “no binding (tested: 10 µg/mL)”; in test [6], “no binding (tested: 10 µg/mL)”. Besides, the half-maximal effective concentration (EC50) in test [2] fell in the range of 1.81 to 3.64 nM.

The EC50 is the concentration giving half of the maximal effect.

(Values after patent US20200231671A1 (E R SQUIBB AND SONS L L C, published 2020).)
